T1: recombinant hMCAM-His (human) (UniProt P43121)
T1 sequence: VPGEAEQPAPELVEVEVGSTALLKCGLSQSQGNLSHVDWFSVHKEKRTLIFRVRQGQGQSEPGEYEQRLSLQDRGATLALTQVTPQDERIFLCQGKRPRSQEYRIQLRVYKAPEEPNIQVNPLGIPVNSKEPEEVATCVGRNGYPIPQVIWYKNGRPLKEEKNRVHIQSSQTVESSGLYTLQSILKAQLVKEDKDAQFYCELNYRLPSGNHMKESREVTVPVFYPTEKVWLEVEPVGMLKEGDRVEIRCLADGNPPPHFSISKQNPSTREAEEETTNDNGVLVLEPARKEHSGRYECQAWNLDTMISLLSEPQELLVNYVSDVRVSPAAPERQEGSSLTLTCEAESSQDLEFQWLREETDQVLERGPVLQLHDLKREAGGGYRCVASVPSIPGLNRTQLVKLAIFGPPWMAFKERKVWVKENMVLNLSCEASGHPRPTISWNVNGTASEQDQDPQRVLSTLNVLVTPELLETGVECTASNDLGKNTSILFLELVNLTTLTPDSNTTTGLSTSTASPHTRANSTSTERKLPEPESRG

T2: human MCAM expressed on CHO cells transfected with the full length human MCAM gene (human) (UniProt P43121)
T2 sequence: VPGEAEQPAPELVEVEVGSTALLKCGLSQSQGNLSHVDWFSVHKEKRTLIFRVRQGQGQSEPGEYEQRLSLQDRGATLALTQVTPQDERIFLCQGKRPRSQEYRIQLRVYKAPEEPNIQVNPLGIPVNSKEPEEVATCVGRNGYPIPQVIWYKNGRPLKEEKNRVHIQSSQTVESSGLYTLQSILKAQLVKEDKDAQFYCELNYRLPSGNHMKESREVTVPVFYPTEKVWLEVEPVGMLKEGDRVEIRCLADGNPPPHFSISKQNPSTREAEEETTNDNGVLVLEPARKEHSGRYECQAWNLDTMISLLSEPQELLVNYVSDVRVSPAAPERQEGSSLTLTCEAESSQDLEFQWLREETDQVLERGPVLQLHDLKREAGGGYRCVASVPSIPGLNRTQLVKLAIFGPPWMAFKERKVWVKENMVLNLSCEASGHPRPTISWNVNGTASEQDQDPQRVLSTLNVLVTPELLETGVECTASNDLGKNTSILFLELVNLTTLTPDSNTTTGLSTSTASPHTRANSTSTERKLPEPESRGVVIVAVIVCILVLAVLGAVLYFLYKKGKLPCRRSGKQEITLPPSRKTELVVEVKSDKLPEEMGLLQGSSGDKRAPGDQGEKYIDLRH


Assays:
[1] = target: T1, recombinant hMCAM-His (human); experiment: competitive ELISA on hMCAM-His against biotinylated rodent or chimeric antibody
[2] = target: T2, human MCAM expressed on CHO cells transfected with the full length human MCAM gene (human); experiment: laminin/FACS assay, blocking of laminin 411 binding to hMCAM expressing CHO cells
[3] = target: chimpanzee MCAM on circulating T cells (chimpanzee); experiment: FACS, chimpanzee whole blood in vitro

fold reduction in apparent affinity against the rodent parent [1] | fold reduction in potency (laminin blocking) against the rodent parent [2] | concentration required to saturate MCAM [3] | Binder
< 2 x | < 2 x |  | humanized 2120 antibody VH5VL3 (G-A N-deamidation mutant VH/conservative VL) (antibody, V domains shown) VH: QVTLKESGPVLVKPTETLTLTCTVSGFSLTSNAVSWVRQPPGKALEWIAAISSGGTTYYNSAFKSRLTISRDTSKSQVVLTMTNMDPVDTATYYCARRYGYGWYFDFWGQGTLVTVSS VL: DIQMTQSPSSLSASVGDRVTINCKASQNIYNSLAWYQQKPGKAPKVLIFNANSLQTGIPSRFSGSGSGTDFTLTISSLQPEDFATYYCQQFYSGYTFGQGTKLEIK
 |  | 1 to 3 µg/mL | PRX003 (humanized anti-MCAM antibody, human IgG1 kappa isotype) (antibody, V domains shown) VH: EVTLKESGPVLVKPTETLTLTCTVSGFSLTSNAVSWVRQPPGKALEWIAAISSGGTTYYNSAFKSRLTISRDTSKSQVVLTMTNMDPVDTATYYCARRYGYGWYFDFWGQGTLVTVSS VL: DIQMTQSPSSLSASVGDRVTINCKASQNIYNSLAWYQQKPGKAPKVLIFNANSLQTGIPSRFSGSGSGTDFTLTISSLQPEDFATYYCQQFYSGYTFGQGTKLEIK
